Measured values: publication PMC4672631 (Biochemistry, 2015)

B1: subunit IV, spinach (natural protein, UniProt P00166 1-160, looked up)
chain: MGVTKKPDLNDPVLRAKLAKGMGHNYYGEPAWPNDLLYIFPVVILGTIACNVGLAVLEPSMIGEPADPFATPLEILPEWYFFPVFQILRTVPNKLLGVLLMASVPAGLLTVPFLENVNKFQNPFRRPVATTVFLVGTVVALWLGIGATLPIDKSLTLGLF
B2: cytochrome b6, spinach (natural protein, UniProt P00165 1-215, looked up)
chain: MSKVYDWFEERLEIQAIADDITSKYVPPHVNIFYCLGGITLTCFLVQVATGFAMTFYYRPTVTDAFASVQYIMTEVNFGWLIRSVHRWSASMMVLMMILHVFRVYLTGGFKKPRELTWVTGVVLGVLTASFGVTGYSLPWDQIGYWAVKIVTGVPDAIPVIGSPLVELLRGSASVGQSTLTRFYSLHTFVLPLLTAVFMLMHFLMIRKQGISGPL
B3: iron-sulfur protein (ISP), spinach (natural protein, UniProt P08980 52-230, looked up)
chain: ATSIPADNVPDMQKRETLNLLLLGALSLPTGYMLLPYASFFVPPGGGAGTGGTIAKDALGNDVIAAEWLKTHAPGDRTLTQGLKGDPTYLVVESDKTLATFGINAVCTHLGCVVPFNAAENKFICPCHGSQYNNQGRVVRGPAPLSLALAHCDVDDGKVVFVPWTETDFRTGEAPWWSA

Target: cytochrome f (PetA), spinach (spinach, UniProt P16013 36-320)
Assay: co-purification with SDS-PAGE densitometry

Chain of cytochrome f (PetA), spinach (P16013 36-320): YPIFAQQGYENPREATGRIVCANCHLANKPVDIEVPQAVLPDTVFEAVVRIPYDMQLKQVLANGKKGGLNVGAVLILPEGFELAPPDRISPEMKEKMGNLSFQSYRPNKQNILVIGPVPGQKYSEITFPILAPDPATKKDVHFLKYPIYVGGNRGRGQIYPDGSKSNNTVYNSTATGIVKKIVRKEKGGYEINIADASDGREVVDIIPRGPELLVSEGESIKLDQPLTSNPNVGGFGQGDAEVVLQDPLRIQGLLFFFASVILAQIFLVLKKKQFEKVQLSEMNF

Row | Binder | stoichiometry N
1 | B1 | 0.85 relative to cyt f
2 | B2 | 0.96 relative to cyt f
3 | B3 | 0.95 relative to cyt f
